# Results from patent US20060140946A1.
# B1: chimeric mouse/human IgG1 anti-platelet mAb (7E3) (antibody, INN chains, looked up, V domains shown)
# VH: EVQLQQSGTVLARPGASVKMSCEASGYTFTNYWMHWVKQRPGQGLEWIGAIYPGNSDTSYIQKFKGKAKLTAVTSTTSVYMELSSLTNEDSAVYYCTLYDGYYVFAYWGQGTLVTVSA
# VL: EIVLTQSPVTLSVTPGDSVSLSCRASRDISNNLHWFQQTSHESPRLLIKYASQSMSGIPSRFSGSGSGTDFTLSINSVETEDFGMYFCQQTNSWPYTFGGGTKLEIK
# modifications: IgG1
# Target: human tumor necrosis factor-alpha (hTNFα) (human) (UniProt P01375)
# Test: cell-based or functional assay
# human tumor necrosis factor-alpha (hTNFα) (human), sequence (P01375 77-233): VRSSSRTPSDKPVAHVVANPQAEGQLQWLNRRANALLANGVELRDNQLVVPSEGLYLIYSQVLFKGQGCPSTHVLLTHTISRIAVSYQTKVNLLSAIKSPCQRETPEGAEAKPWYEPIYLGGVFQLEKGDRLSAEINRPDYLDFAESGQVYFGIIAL
binder,measurement,value
B1,"IL-6 secreted by FS-4 fibroblasts; 4 µg/ml antibody, rhTNF 0.3 ng/ml",1.6 ng/mL
same,"IL-6 secreted by FS-4 fibroblasts; 4 µg/ml antibody, rhTNF 1.5 ng/ml",1.96 ng/mL
same,"IL-6 secreted by FS-4 fibroblasts; 4 µg/ml antibody, rhTNF 7.5 ng/ml",2.16 ng/mL
